The results in this text go back to article PMC11251093 (iScience, 2024).

The assay concerns the target SARS-CoV S-6P (SARS-CoV, strain , UniProt P59594, stabilised). Nature of the assay: SPR. A general note: Surface plasmon resonance follows binding to a sensor surface in real time, without labels.

B1: 6D6 (antibody, V domains shown)
VH: EVQLQQSGAELVKPGASVKLSCTTSGFNIIDTYMHWVKQRPEEGLEWIGGIDPVNGNSEYDPKFQDKATITADTSSNTAYLHLSRLTSEDTAVYYCASAHYYGSSSSFPYWGQGTDLVTVS
VL: DIVMTQSQKFMSTSVGDRVSVTCKASQNVGTHVAWYQQKPGQSPKALIYSASYRYSGVPDRFTGSGVGTDFTLTITNVQSEDLAEYFCQQYNSYFTFGSGTKLEIK
Consider B1, for which the binding result was “binds”.
